Like-named read-outs stand apart in the source and are kept apart here. Values belong to the molecule of their own block, whether it stands above or below them.
Assays:
Experiment in all cases: ITC
[1] = target: PWWP domain of dP75 (residues 8-91) (Drosophila)
[2] = target: dP75 IBD-containing C-terminus region (residues 209-445) (Drosophila)
[3] = target: dP75 IBD-containing C-terminus region (residues 209-445) (Drosophila); remark: listed apart in the source

Kd [1]: > 500 µM
Molecule: H3K36me3 peptide

Kd [2]: 0.8 µM
Molecule: Jil-1 peptide from the proximal site (…; residues 984-1004)

Kd [3]: 120 µM
Molecule: KREENFYGFSK [Jil-1 peptide at the distal site (…; residues 1102-1112)]

Reference: doi:10.1101/856021
